Test results from US20060193821, “Aptamers to the human IL-12 cytokine family and their use as autoimmune disease therapeutics” (published 2006).

Experiments:
[1] = molecular target: T1, IL-23 (human, p19/p40 heterodimer) (Homo sapiens, UniProt Q9NPF7;P29460 SEQ:20-189,SEQ:23-328); test: filter; no binding; used as negative control; details: tags: R&D Systems, carrier free; label: 5'-32P
Description: (§1) The fraction aptamer bound vs. [IL-23] was used to calculate the KD by fitting the following equation to the data: Fraction aptamer bound=amplitude*([IL-23]/(KD+[IL-23]))+background binding.
Table 25 below summarizes the minimized sequences and the parent clone from which they were derived, and Table 26 summarizes the binding characterization from direct binding assays (+/−tRNA) and competition binding assays for the minimized constructs tested.

[2] = molecular target: T1, IL-23 (human, p19/p40 heterodimer); test: filter; no binding detectable; details: tags: R&D Systems, carrier free; label: 32P
[3] = molecular target: IL-12 (human, p35/p40 heterodimer) (Homo sapiens, UniProt P29459;P29460 SEQ:57-253,SEQ:23-328); test: filter; no binding detectable; details: label: 32P
IL-12 (human, p35/p40 heterodimer), sequence (P29459 23-219, chain 1 of 2): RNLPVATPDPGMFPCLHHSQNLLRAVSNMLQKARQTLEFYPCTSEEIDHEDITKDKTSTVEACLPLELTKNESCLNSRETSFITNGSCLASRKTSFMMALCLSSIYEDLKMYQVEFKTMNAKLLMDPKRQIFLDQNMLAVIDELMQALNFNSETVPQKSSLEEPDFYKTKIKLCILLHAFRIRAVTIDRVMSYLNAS
IL-12 (human, p35/p40 heterodimer), sequence (P29460 23-328, chain 2 of 2): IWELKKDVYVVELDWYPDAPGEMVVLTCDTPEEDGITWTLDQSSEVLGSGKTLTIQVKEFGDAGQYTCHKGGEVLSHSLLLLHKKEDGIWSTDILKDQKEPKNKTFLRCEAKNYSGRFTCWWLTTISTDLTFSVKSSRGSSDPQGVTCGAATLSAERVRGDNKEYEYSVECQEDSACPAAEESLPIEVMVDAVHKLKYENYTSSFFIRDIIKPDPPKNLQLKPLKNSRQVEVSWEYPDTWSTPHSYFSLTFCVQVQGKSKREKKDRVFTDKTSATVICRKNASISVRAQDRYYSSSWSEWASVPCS

[4] = molecular target: T1, IL-23 (human, p19/p40 heterodimer); test: filter; no binding in dot blot, but active in TransAM cell assay (p381); details: tags: R&D Systems, carrier free; label: 5'-32P
[5] = molecular target: T2, IL-12 (mouse, p35/p40 heterodimer) (Mus musculus, UniProt P43431;P43432 SEQ:23-215,SEQ:23-335); test: filter; 1X PBS, 0.1 mg/mL BSA, 30 min RT; details: label: 32P
T2 sequence 1: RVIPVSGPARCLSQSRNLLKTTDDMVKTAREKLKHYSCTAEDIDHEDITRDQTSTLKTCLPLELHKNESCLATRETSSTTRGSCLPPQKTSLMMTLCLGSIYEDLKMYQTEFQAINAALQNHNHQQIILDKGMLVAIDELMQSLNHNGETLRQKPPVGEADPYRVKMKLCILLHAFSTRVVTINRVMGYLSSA
T2 sequence 2: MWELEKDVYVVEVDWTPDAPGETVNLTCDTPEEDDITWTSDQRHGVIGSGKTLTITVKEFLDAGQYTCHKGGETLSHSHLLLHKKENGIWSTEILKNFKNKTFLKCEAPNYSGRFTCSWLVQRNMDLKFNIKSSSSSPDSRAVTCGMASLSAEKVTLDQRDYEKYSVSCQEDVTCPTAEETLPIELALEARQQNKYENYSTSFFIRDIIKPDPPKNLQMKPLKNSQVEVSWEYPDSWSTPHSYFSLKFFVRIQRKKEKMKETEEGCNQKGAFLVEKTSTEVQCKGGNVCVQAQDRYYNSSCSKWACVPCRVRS
Description: (§2) rRfY-mIL-23S/mIL-12 neg Protein Binding Analysis. The dot blot binding assays previously described were performed throughout the selection to monitor the protein binding affinity of the pool. Trace ³²P-labeled RNA was combined with mIL-23 or mIL-12 and incubated at room temperature for 30 min in 1×PBS plus 0.1 mg/mL BSA for a final volume of 30 μL. The reaction was added to a dot blot apparatus (Schleicher and Schuell Minifold-1 Dot Blot, Acrylic). Binding curves were generated as described in previous sections. When a significant level of binding of RNA in the presence of mIL-23 was observed, the pool was cloned using the TOPO TA cloning kit (Invitrogen, Carlsbad, Calif.) according to the manufacturer's instructions. The Round 9 pool template was cloned, and 10 individual clones from the selection were assayed in an 8-point dot blot titration against mIL-23. […] Four of the 10 total clones screened bound especially to mIL-23 and mIL-12 at varying affinities.

[6] = molecular target: T3, IL-23 (mouse, p19/p40 heterodimer) (Mus musculus, UniProt Q9EQ14;P43432 SEQ:22-196,SEQ:23-335); test: filter; 1X PBS, 0.1 mg/mL BSA, 30 min RT; details: tags: isolated in-house; label: 32P
T3 sequence 1: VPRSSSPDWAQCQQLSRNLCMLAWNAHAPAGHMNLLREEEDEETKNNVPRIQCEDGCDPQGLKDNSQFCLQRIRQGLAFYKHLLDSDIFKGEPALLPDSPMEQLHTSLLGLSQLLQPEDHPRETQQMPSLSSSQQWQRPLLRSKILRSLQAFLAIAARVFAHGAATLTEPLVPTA
T3 sequence 2: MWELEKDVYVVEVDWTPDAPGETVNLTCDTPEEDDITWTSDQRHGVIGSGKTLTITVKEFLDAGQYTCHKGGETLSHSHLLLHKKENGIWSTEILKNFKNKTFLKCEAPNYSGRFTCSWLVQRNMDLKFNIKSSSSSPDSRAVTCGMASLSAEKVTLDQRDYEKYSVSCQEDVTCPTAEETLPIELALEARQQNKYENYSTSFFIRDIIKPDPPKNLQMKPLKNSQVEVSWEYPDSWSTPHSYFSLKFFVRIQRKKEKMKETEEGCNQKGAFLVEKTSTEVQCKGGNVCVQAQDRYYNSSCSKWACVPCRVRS
Description: as §2

[7] = molecular target: T1, IL-23 (human, p19/p40 heterodimer); test: filter; non functional, lacks G doubles; details: tags: R&D Systems, carrier free
[8] = molecular target: T3, IL-23 (mouse, p19/p40 heterodimer); test: filter; 1X PBS, 0.1 mg/mL BSA, 30 min RT; inactive in TransAM cell assay; details: tags: isolated in-house; label: 32P
Description: Based on visual inspection of the parent clone sequences of the mouse IL-23 rRfY aptamers described in Example 1E, and predicted RNA structures using an RNA folding program (RNAstructure), minimized constructs were designed for each of the seven binding mIL-23 clones. PCR templates for the minimized construct oligos were ordered from Integrated DNA Technologies (Coraville, Iowa). Constructs were PCR amplified, transcribed, gel purified, and tested for binding to mIL-23 using the dot blot binding assay previously described. Trace ³²P-labeled RNA was combined with mIL-23 and incubated at room temperature for 30 min in 1×PBS plus 0.1 mg/mL BSA for a final volume of 30 μL. The reaction was added to a dot blot apparatus (Schleicher and Schuell Minifold-1 Dot Blot, Acrylic). Binding curves were generated as described in previous sections. Table 33 summarizes the protein binding characterization for each rRfY minimized construct that had significant binding to mIL-23.

[9] = molecular target: T1, IL-23 (human, p19/p40 heterodimer); test: filter; 1X PBS, tRNA, ssDNA, BSA, 30 min RT; details: tags: R&D Systems, carrier free; label: 5'-32P
Description: Following the dRmY selection process for aptamers binding to IL-23 (described in Example 1C above) and determination of the oligonucleotide sequences, the sequences were systematically minimized to obtain shorter oligonucleotide sequences that retain the binding characteristics. On the basis of the IL-23 binding analysis described in Example 1A above and the cell based assay data described in Example 3 below, ARC489 (SEQ ID NO 91) (74mer) was chosen for further characterization. 3 minimized constructs based on clone ARC489 (SEQ ID NO 91) were designed and generated. […] Table 23 includes the binding data for the dRmY minimized aptamers.

[10] = molecular target: T1, IL-23 (human, p19/p40 heterodimer); test: competition; 1X PBS, 0.1 mg/mL BSA; direct binding Kd 40 nM with tRNA; details: tags: R&D Systems, carrier free; label: 5'-32P; G4 (predicted)
Description: as §1
(§3) Several of the minimized constructs from the dRmY Selection 2 were also assayed in a competition format in which cold aptamer was titrated and competed away trace ³²P ATP labeled aptamer In the competition assay, the [IL-23] was held constant, the [trace labeled aptamer] was held constant, and the [unlabeled aptamer] was varied. The KD was calculated by fitting the following equation to the data: Fraction aptamer bound=amplitude*([aptamer]/(KD+[aptamer]))+background binding.

[11] = molecular target: T1, IL-23 (human, p19/p40 heterodimer); test: competition; 1X PBS, 0.1 mg/mL BSA; direct Kd 93 nM with tRNA, 90 nM without; details: tags: R&D Systems, carrier free; label: 5'-32P; G4
Description: as §1, §3

[12] = molecular target: T1, IL-23 (human, p19/p40 heterodimer); test: filter; DPBS Ca Mg, 0.1 mg/mL BSA; details: tags: R&D Systems, carrier free
Description: The dot blot binding assay previously described was used to characterize the relative potency of the majority of the aptamers synthesized. For KD determination, chemically synthesized aptamers were purified using denaturing polyacrylamide gel electrophoresis, 5′end labeled with γ-³²P ATP and were tested for direct binding to full human IL-23. An 8 point protein titration was used in the dot blot binding assay (either {100 nM, 30 nM, 10 nM, 3 nM, 1 nM, 300 pM, 100 pM, 0 pM} or {10 nM, 3 nM, 1 nM, 300 pM, 100 pM, 30 pM, 10 pM, 0 pM}) in Dulbecco's PBS (with Mg⁺⁺ and Ca⁺⁺) with 0.1 mg/mL BSA. KD values were calculated by fitting the equation y=(max/(1+K/protein))+yint using KaleidaGraph (KaleidaGraph v. 3.51, Synergy Software). Sequences of the ARC979 derivatives synthesized, purified and assayed for binding to IL-23 as well as the results of the protein binding characterization are tabulated below in Tables 29 and 30.

[13] = molecular target: T1, IL-23 (human, p19/p40 heterodimer); test: SPR; Biacore, IL-23 immobilized on CM3; HBS-P, 25 C; details: tags: R&D Systems, carrier free
Description: All biosensor binding measurements were performed at 25° C. using a BIACORE 2000 equipped with a research-grade CM3 biosensor chip (BIACORE Inc. Piscataway, N.J.). Purified recombinant human IL-23 (R&D Systems, Minnapolis, Minn.) was immobilized to the biosensor surface using amino-coupling chemistry. To achieve this, the surfaces of two flow cells were first activated for 7 minutes with a 1:1 mixture of 0.1 M NHS (Nhydroxysuccinimide) and 0.4 M EDC (3-(N,Ndimethylamine) propyl-N-ethylcarbodiimide) at a flow rate of 5 μl/min. After surface activation, one flow cell was injected with 50 μg/ml of IL-23 at rate of 10 μl/minute for 15 minutes to allow for establishment of covalent bonds to the activated surface. Next, 1 M ethanolamine hydrochloride pH 8.5 was injected for 7 min at rate of 5 μl/min to inactivate residual esters. As a negative control, a blank flow cell was prepared by injecting 1 M ethanolamine hydrochloride pH 8.5 continuously for 7 minutes to inactivate residual esters, without protein injection.
For IL-23 binding, aptamers were serially diluted into HBS-P buffer (10 mM HEPES pH7.4, 150 mM NaCl, 0.005% Surfactant 20). […] Rate constant and dissociation constant were calculated using BIAevaluation software.

[14] = molecular target: T1, IL-23 (human, p19/p40 heterodimer); test: filter; direct binding without tRNA; competition Kd 5 nM; details: tags: R&D Systems, carrier free; label: 5'-32P
Description: These molecules were gel purified and assayed for IL-23 binding using the dot blot assay as described above and compared to each other and to the parent molecule, ARC979. An 8 point IL-23 titration (0 nM to 300 nM, 3 fold serial dilutions) was used in the binding assay.

T1 sequence (Q9NPF7 20-189, chain 1 of 2): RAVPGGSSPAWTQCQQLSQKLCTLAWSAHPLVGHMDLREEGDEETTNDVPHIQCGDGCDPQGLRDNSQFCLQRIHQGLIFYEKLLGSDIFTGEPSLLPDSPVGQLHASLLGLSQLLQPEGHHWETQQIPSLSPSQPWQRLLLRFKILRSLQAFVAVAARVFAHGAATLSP
T1 sequence (P29460 23-328, chain 2 of 2): as the sequence (P29460 23-328, chain 2 of 2) above

Binder: GGCAAGGUAAUUGGGUAGUGAGGGCUGGG (mixed, 2'-deoxy A and G, 2'-OMe C and U (dRmY)) [ARC895]
- binding result [1]: no binding

B1: ARC492 (mixed)
RNA: GGGAGAGGAGAGAACGUUCUACUCAAUGACCGCGCGAGGCUCUGGGAGAGGGCGCUGUCGAUCGAUCGAUCGAUG
modifications: 2'-deoxy A and G, 2'-OMe C and U (dRmY)
- binding result [2]: no binding
- binding result [3]: no binding

Binder: GGCGGUUACGGGGGAUGCGGGUGGGACAGG (mixed, 2'-deoxy A and G, 2'-OMe C and U (dRmY)) [ARC982]
- binding result [4]: no binding

B2: AMX369.H1 (ARC1914) (ssRNA)
RNA: GGAGCGCACUCAGCCACCUGGGAAAAUCUGGGUCCCUGAGUUCUAACAGCAGAGAUUUUUCGACCUCUCUGCUAGC
modifications: 2'-F all C and U (rRfY)
- Kd [5]: 194 nM
- Kd [6]: 23 nM

Binder: CUACAAGGCGGUACGGGGAGUGUGG (mixed, deoxy A,G; 2'-OMe C,U) [ARC793]
- binding result [7]: no binding

Binder: GGAGCGCACUCAGCCACCGGCUUAAUAUCCAAUAGGAACGUUCGCUCU (ssRNA, 2'-F all C and U (rRfY)) [ARC1918 (ARC1632 minimer)]
- Kd [8]: 1 nM

Binder: ACAGCGCCGGUGGGCGGGCAUUGGGUGGAUGCGCUGU (mixed, 2'-deoxy A and G, 2'-OMe C and U (dRmY)) [ARC527]
- Kd [9]: 12.6 nM

Binder: CGAUAUAGGCGGUACGGGGGGAGUGGGCUGGGGUCG (mixed, 2'-deoxy A and G, 2'-OMe C and U (dRmY)) [ARC795]
- Kd [10]: 4 nM

Binder: ACAGGCAAGUAAUUGGGGAGUGCGGGCGGGGUGU (mixed, 2'-deoxy A and G, 2'-OMe C and U (dRmY)) [ARC979]
- Kd [11]: 9 nM

B3: ARC1620 (mixed)
RNA: ACAGGCAAGUAAUUGGGGAGUGCGGGCGGGGUGU
modifications: 2'-OMe C,U and G16,G17,G24,G25,G30,G31; other A,G deoxy; PS 2-3; 3'-idT [PS 2-3; 2'-OMe at 2,6,10,13,14,16,17,21,23,24,25,27,30,31,32,34; other A,G deoxy; 3'-inverted dT at 35]
- Kd [12]: 0.4 nM

Binder: ACAGGCAAGUAAUUGGGGAGUGCGGGCGGGGUGU (mixed, ARC1623 with 5'-amine-linked 40 kDa PEG; 2'-deoxy, 2'-OMe, PS, 3'-idT) [ARC1988]
- Kd [13]: ~2 nM

B4: ARC1160 (mixed)
RNA: ACAGGCAAGUAAUUGGGGAGUGCGGGCGGGGUGU
modifications: dRmY; PS between nt 18 and 19 [N = PS linkage, not a base; PS between nt 18 and 19; 2'-deoxy all A/G; 2'-OMe all C/U (2,6,10,13,14,21,23,27,32,34)]
- Kd [14]: 38 nM
